Source: US20020019040A1 (LEADD B V, published 2002)

Assays:
[1] = target: T1, fusion gene product of GAL4-DNA-binding domain and Apoptin (bait plasmid pGBT-VP3) (chicken anemia virus, UniProt P04386 1-147; Q99152 1-121); assay: yeast two-hybrid control (HIS3 and LacZ reporters)
T1 construct: Yeast two-hybrid bait, expressed in yeast strain Y190; also called pGBT9-VP3; not shown: residues encoded by the EcoRI-NdeI linker

[2] = target: T1, fusion gene product of GAL4-DNA-binding …; assay: yeast two-hybrid

B1: GAL4-activation domain of the empty pACT vector (other)
chain: ANFNQSGNIADSSLSFTFTNSSNGPNLITTQTNSQALSQPIASSNVHDNFMNNEITASKIDDGNNSKPLSPGWTDQTAYNAFGITTGMFNTTTMDDVYNYLFDDEDTPPNPKKE
notes: Negative control of the yeast two-hybrid system
[1]
  binding result: no binding

B2: GAL4-activation domain fusion of the AAP-3 cDNA clone (pACT) (other)
chain: HEGPMVGGGGVGGGLLENANPLIYQRSGERPVTAGEEDEQVPDSIDAREIFDLIRSINDPEHPLTLEELNVVEQVRVQVSDPESTVAVAFTPTIPHCSMATLIGLSIKVKLLRSLPQRFKMDVHITPGTHASEHAVNKQLADKERVAAALENTHLLEVVNQCLSARS
notes: Yeast two-hybrid prey; also called Apoptin-associating clone AAP-3
[2]
  binding result: binds
